From patent publication US20240132546A1 (Molecular Partners, published 2024) come the findings set out here.

The target of test [1] is T1, biotinylated full-length HER2 (human, UniProt P04626 23-652, limits assumed, biotinylated (site not stated)).
T1 construct: Immobilised on the SPR chip; also called bio-HER2; Human Epidermal Growth Factor Receptor 2
The test can be described thus: SPR, single trace, 500 nM analyte over biotinylated HER2 on the chip, double-referenced, 1:1 Langmuir fit [continued]. An excerpt: (§1) FIG. 4: Single-trace SPR profiles of DTPA-coupled DARPins (also referred to as constructs, see Table 7) against biotinylated full-length HER2. As reference, plots 1 and 2 show the profiles of the HER2-binding parental DARPin06 (SEQ ID NO: 6) and DARPin11 (SEQ ID NO: 11), respectively. Plots 3, 4, 5, 6 and 7 show the profiles of construct 6 (DARPin06-GSGSC-DTPA), construct 7 (DARPin07-GSGSC-DTPA), construct 8 (DARPin08-GSGSC-DTPA), construct 9 (DARPin09-GSGSC-DTPA) and construct 10 (DARPin10-GSGSC-DTPA), respectively. Plots 8 and 9 show construct 11 (DARPin11-GSGSC-DTPA) and construct 12 (DARPin12-GSGSC-DTPA), respectively. The GSGSC tag (SEQ ID NO: 14) was fused to the C-terminal end of the DARPins. All analytes (500 nM) were injected in succession for 120s, dissociation was recorded for 180s (25 ul/min of PBS-Tween20 (0.005%)). Each injection was followed by a regeneration step with glycine pH2.0 for 60s. The data was double referenced (control spot and buffer injection) and fitted to a 1:1 Langmuir model.
A surface plasmon resonance (SPR) assay was used to determine if the charge-engineered DARPin variants derived from the parental DARPin06 (SEQ ID NO: 6) and DARPin11 (SEQ ID NO: 11) could still bind to HER2. All SPR data were generated using a Bruker Sierra SPR-32 instrument with PBS-T (0.005% Tween 20) as running buffer. A new Bruker BTC Chip was conditioned according to the manufacturer's protocol. The chip was coated with biotinylated target (bio-HER2) to reach a signal intensity of approximatively 600 RU. All analytes (500 nM) were injected in succession for 120s, dissociation was recorded for 180s (25 ul/min). Each injection was followed by a regeneration step with glycine pH 2.0 for 60s. The data was double referenced (control spot and buffer injection) and fitted to a 1:1 Langmuir model. […] A DTPA coupled DARPin is also referred to as a “construct”. SPR curves are shown in FIG. 4 where plots 1 and 2 show the profiles of the HER2-binding parental DARPin06 and DARPin11 (SEQ ID NOs: 6 and 11, respectively).
A general note: Surface plasmon resonance follows binding to a sensor surface in real time, without labels.

Test [2] addresses T1, biotinylated full-length HER2. The test can be described thus: SPR multi-trace, biotinylated HER2 on chip, analyte 0.617-50 nM, global 1:1 Langmuir fit. An excerpt:
(§2) FIGS. 9A-9F: Multi-trace SPR profiles of DTPA-coupled DARPins (also referred to as constructs, see Tables 7 and 16) against biotinylated full-length HER2. FIGS. 9A, 9B, 9C, 9D, 9E, and 9F show the profiles of construct 6 (DARPin06-GSGSC-DTPA), construct 8 (DARPin08-GSGSC-DTPA), construct 13 (DARPin13-GSGSC-DTPA), construct 14 (DARPin14-GSGSC-DTPA), construct 15 (DARPin15-GSGSC-DTPA) and construct 16 (DARPin16-GSGSC-DTPA), respectively. The GSGSC tag (SEQ ID NO: 14) was fused to the C-terminal end of the DARPins. Three-fold dilutions of the analytes (50, 16.667, 5.556, 1.852 and 0.617 nM) were injected for 300s, dissociation was recorded for 1500s (25 ul/min). Each injection was followed by a regeneration step with glycine pH 2.0 for 60s. Dissociation constants (KD) were calculated from the globally fitted on- and off-rates using standard 1:1-Langmuir model (see Table 17).
(§3) Binding kinetics of the constructs to the target protein HER2 was measured in a multi-trace SPR assay. A new Xantec NAHLC200M chip was conditioned according to the manufacturer's protocol. The chip was coated with biotinylated target (bio-HER2, 10 ug/mL) for 900s to reach a signal intensity of approximately 1200-1300 RU. Three-fold dilutions of the analytes (50, 16.667, 5.556, 1.852 and 0.617 nM) were injected for 300s, dissociation was recorded for 1500s (25 ul/min). Each injection was followed by a regeneration step with glycine pH 2.0 for 60s. The signals (i.e. resonance unit (RU) values) of empty surface and a reference injection (i.e. injection of running buffer only) were subtracted from the RU traces obtained injecting the constructs (double-referencing). Dissociation constants (KD) were calculated from the globally fitted on- and off-rates using standard 1:1-Langmuir model.

Test [3] shares this target. The description is as above.
Source text: as §2, §3
The source holds these as a separate data set.

For test [4] the target is unchanged. The test is described as follows: SPR, single trace, 500 nM analyte over biotinylated HER2 on the chip, double-referenced, 1:1 Langmuir fit.
Source text: as §1
A surface plasmon resonance (SPR) assay was used to determine if the charge-engineered DARPin variants derived from the parental DARPin06 (SEQ ID NO: 6) and DARPin11 (SEQ ID NO: 11) could still bind to HER2. […] All analytes (500 nM) were injected in succession for 120s, dissociation was recorded for 180s (25 ul/min). […]

B1: DARPin11-GSGSC-DTPA (designed binder)
chain: DLGIKLLFAAAKGQDDEVRELLKAGADVNAKDFQGVTPLHIAAQSGHLEIVEVLLKAGADVNAKDVTGDTPLHLAAQHGHLEIVEVLLKAGADVNAQDERGWTPADLAADWGHEDIAEVLQKAAGSGSC
modifications: maleimide-DTPA coupled to the C-terminal Cys of the GSGSC tag
notes: Parent; His-TEV tag cleaved off; possible N-terminal GS not included; also called construct 11; DTPA coupled parental DARPin11
B1 gave a Kd in test [1] of 226 pM.

B2: DARPin12-GSGSC-DTPA (designed binder)
chain: DLGIQLLFAAAKGQLDTVRTLLQAGADVNAKDFQGVTPLHIAAQSGHLQIVEVLLQAGADVNAKDVTGDTPLHLAAQHGHLQIVTVLLQAGADVNAQDERGWTPADLAADWGNQQIAEVLQQAAGSGSC
modifications: maleimide-DTPA coupled to the C-terminal Cys of the GSGSC tag
notes: Charge variant of DARPin11; His-TEV tag cleaved off; possible N-terminal GS not included; also called construct 12
B2 came in with a Kd in test [1] of 982 pM.

B3: DARPin07-GSGSC-DTPA (designed binder)
chain: DLGTQLLRAAESGQLDTVRTLLKAGADVNAKDEYGLTPLYLATAHGHLQIVRVLLQAGADVNAKDAIGFTPLHLAAFIGHLKIAEVLLKAGADVNAQDKFGKTPAQIAATAGNQQIASVLQKAAGSGSC
modifications: maleimide-DTPA coupled to the C-terminal Cys of the GSGSC tag
notes: Charge variant of DARPin06 (negative control for kidney uptake, higher pI); His-TEV tag cleaved off; possible N-terminal GS not included; also called construct 7
In the case of B3, the affinity in test [1], expressed as Kd, was 456 pM.

B4: DARPin09-GSGSC-DTPA (designed binder)
chain: DLGTQLLQAAESGQLDTVRTLLKAGADVNAQDEYGLTPLYLATAHGHLQIVQVLLSAGADVNAQDAIGFTPLHLAAFIGHLQIAQVLLSAGADVNAQDKFGTTPAQIAATAGNQQIASVLQQAAGSGSC
modifications: maleimide-DTPA coupled to the C-terminal Cys of the GSGSC tag
notes: Charge variant of DARPin06; His-TEV tag cleaved off; possible N-terminal GS not included; also called construct 9
In the case of B4, the Kd in test [1] turned out to be 1440 pM.

B5: DARPin08-GSGSC-DTPA (designed binder)
chain: DLGTQLLRAAESGQLDEVRELLKAGADVNAQDEYGLTPLYLATAHGHLEIVTVLLEAGADVNAQDAIGFTPLHLAAFIGHLEIATVLLEAGADVNAQDKFGKTPADIAAGAGNEDIAEVLQKAAGSGSC
modifications: maleimide-DTPA coupled to the C-terminal Cys of the GSGSC tag
notes: Charge variant of DARPin06; His-TEV tag cleaved off; possible N-terminal GS not included; also called construct 8
In the case of B5, the Kd in test [1] worked out at 583 pM. Also, in test [2], the Kd is < 1000 pM. In test [3], binding was characterised by a dissociation constant (Kd) of 170 pM, the koff was 8.82e-05 s⁻¹ and the kon worked out at 521000 M⁻¹ s⁻¹.

B6: DARPin14-GSGSC-DTPA (designed binder)
chain: DLGTQLLEAAESGQLDEVRELLQAGADVNAQDEYGLTPLYLATAHGHLEIVTVLLEAGADVNAQDAIGFTPLHLAAFIGHLEIATVLLEAGADVNAQDKFGKTPADIAAGAGNEDIAEVLQKAAGSGSC
modifications: maleimide-DTPA coupled to the C-terminal Cys of the GSGSC tag
notes: Charge variant derived from DARPin06; His-TEV tag cleaved off; possible N-terminal GS not included; also called construct 14
Consider B6, for which the dissociation constant Kd in test [2] was < 1000 pM. In test [3], this molecule gave a Kd of 230 pM, a koff of 0.000121 s⁻¹ and a kon of 524000 M⁻¹ s⁻¹.

B7: DARPin06-GSGSC-DTPA (designed binder)
chain: DLGKKLLEAARAGQDDEVRELLKAGADVNAKDEYGLTPLYLATAHGHLEIVEVLLKAGADVNAVDAIGFTPLHLAAFIGHLEIAEVLLKAGADVNAQDKFGKTPADIAAGAGNEDIAEVLQKAAGSGSC
modifications: maleimide-DTPA coupled to the C-terminal Cys of the GSGSC tag
notes: Parent; also called construct 6; DTPA coupled parental DARPin06
In test [4], B7 came in with a Kd of 284 pM. In test [3], this molecule gave a Kd of 216 pM, a koff of 0.000141 s⁻¹ and a kon of 653000 M⁻¹ s⁻¹.

B8: DARPin10-GSGSC-DTPA (designed binder)
chain: DLGTQLLQAAESGQLDTVRELLKAGADVNAQDEYGLTPLYLATAHGHLQIVRVLLQAGADVNAQDAIGFTPLHLAAFIGHLEIATVLLKAGADVNAQDKFGKTPADIAATAGNQQIASVLQKAAGSGSC
modifications: maleimide-DTPA coupled to the C-terminal Cys of the GSGSC tag
notes: Charge variant of DARPin06; His-TEV tag cleaved off; possible N-terminal GS not included; also called construct 10
B8: in test [1], the Kd is 622 pM.

B9: DARPin16-GSGSC-DTPA (designed binder)
chain: DLGTQLLEAAESGQLDEVRELLKAGADVNAQDEYGLTPLYLATAHGHLEIVTVLLEAGADVNAQDAIGFTPLHLAAFIGHLEIATVLLEAGADVNAQDKFGTTPADIAAGAGNEDIAEVLQKAAGSGSC
modifications: maleimide-DTPA coupled to the C-terminal Cys of the GSGSC tag
notes: Charge variant derived from DARPin06; His-TEV tag cleaved off; possible N-terminal GS not included; also called construct 16
Regarding B9, the Kd in test [2] is < 1000 pM. In test [3], this molecule had a dissociation constant Kd of 615 pM, a koff of 0.00026 s⁻¹ and a kon of 422000 M⁻¹ s⁻¹.

B10: DARPin13-GSGSC-DTPA (designed binder)
chain: DLGTQLLQAAESGQLDEVHDLLQAGADVNAQDEYGLTPLYLATAHGHLEIVTVLLEAGADVNAQDAIGFTPLHLAAFIGHLEIATVLLEAGADVNAQDKFGKTPADIAAGAGNEDIAEVLQKAAGSGSC
modifications: maleimide-DTPA coupled to the C-terminal Cys of the GSGSC tag
notes: Charge variant derived from DARPin06; His-TEV tag cleaved off; possible N-terminal GS not included; also called construct 13
On to B10, for which the Kd in test [2] is < 1000 pM. In test [3], the Kd worked out at 357 pM, the koff worked out at 0.000138 s⁻¹ and the kon was determined as 386000 M⁻¹ s⁻¹.

B11: DARPin15-GSGSC-DTPA (designed binder)
chain: DLGTQLLRAAESGQLDEVRELLKAGADVNAQDEYGLTPLYLATAHGHLEIVTVLLEAGADVNAQDAIGFTPLHLAAFIGHLEIATVLLEAGADVNAQDNFGTTPADIAAGAGNEDIAEVLQQAAGSGSC
modifications: maleimide-DTPA coupled to the C-terminal Cys of the GSGSC tag
notes: Charge variant derived from DARPin06; His-TEV tag cleaved off; possible N-terminal GS not included; also called construct 15
Take B11: the Kd in test [2] was < 1000 pM. In test [3], the Kd came out at 637 pM, the koff was found to be 0.000214 s⁻¹ and the kon was 336000 M⁻¹ s⁻¹.

B12: parental DARPin06 (designed binder)
chain: DLGKKLLEAARAGQDDEVRELLKAGADVNAKDEYGLTPLYLATAHGHLEIVEVLLKAGADVNAVDAIGFTPLHLAAFIGHLEIAEVLLKAGADVNAQDKFGKTPADIAAGAGNEDIAEVLQKAA
On to B12, for which the Kd in test [4] stood at 57.5 pM.

In general, Kd refers to the constant that tells how readily two partners part at equilibrium. Broadly, the koff is the rate constant with which the complex falls apart. A lower koff goes with slow dissociation. In general, kon refers to a measure of how fast the partners come together.
